# B1: BBSome complex member BBS2 (Homo sapiens), Q9BXC9 (parent)
# chain: MLLPVFTLKLRHKISPRMVAIGRYDGTHPCLAAATQTGKVFIHNPHTRNQHVSASRVFQSPLESDVSLLSINQAVSCLTAGVLNPELGYDALLVGTQTNLLAYDVYNNSDLFYREVADGANAIVLGTLGDISSPLAIIGGNCALQGFNHEGSDLFWTVTGDNVNSLALCDFDGDGKKELLVGSEDFDIRVFKEDEIVAEMTETEIVTSLCPMYGSRFGYALSNGTVGVYDKTSRYWRIKSKNHAMSIHAFDLNSDGVNELITGWSNGKVDARSDRTGEVIFKDNFSSAIAGVVEGDYRMDGHIQLICCSVDGEIRGYLPGTAEMRGNLMDTSAEQDLIRELSQKKQNLLLELRNYEENAKAELASPLNEADGHRGIIPANTRLHTTLSVSLGNETQTAHTELRISTSNDTIIRAVLIFAEGIFTGESHVVHPSIHNLSSSICIPIVPPKDVPVDLHLKAFVGYRSSTQFHVFESTRQLPRFSMYALTSLDPASEPISYVNFTIAERAQRVVVWLGQNFLLPEDTHIQNAPFQVCFTSLRNGGHLHIKIKLSGEITINTDDIDLAGDIIQSMASFFAIEDLQVEADFPVYFEELRKVLVKVDEYHSVHQKLSADMADHSNLIRSLLVGAEDARLMRDMKTMKSRYMELYDLNRDLLNGYKIRCNNHTELLGNLKAVNQAIQRAGRLRVGKPKNQVITACRDAIRSNNINTLFKIMRVGTASS
# partner: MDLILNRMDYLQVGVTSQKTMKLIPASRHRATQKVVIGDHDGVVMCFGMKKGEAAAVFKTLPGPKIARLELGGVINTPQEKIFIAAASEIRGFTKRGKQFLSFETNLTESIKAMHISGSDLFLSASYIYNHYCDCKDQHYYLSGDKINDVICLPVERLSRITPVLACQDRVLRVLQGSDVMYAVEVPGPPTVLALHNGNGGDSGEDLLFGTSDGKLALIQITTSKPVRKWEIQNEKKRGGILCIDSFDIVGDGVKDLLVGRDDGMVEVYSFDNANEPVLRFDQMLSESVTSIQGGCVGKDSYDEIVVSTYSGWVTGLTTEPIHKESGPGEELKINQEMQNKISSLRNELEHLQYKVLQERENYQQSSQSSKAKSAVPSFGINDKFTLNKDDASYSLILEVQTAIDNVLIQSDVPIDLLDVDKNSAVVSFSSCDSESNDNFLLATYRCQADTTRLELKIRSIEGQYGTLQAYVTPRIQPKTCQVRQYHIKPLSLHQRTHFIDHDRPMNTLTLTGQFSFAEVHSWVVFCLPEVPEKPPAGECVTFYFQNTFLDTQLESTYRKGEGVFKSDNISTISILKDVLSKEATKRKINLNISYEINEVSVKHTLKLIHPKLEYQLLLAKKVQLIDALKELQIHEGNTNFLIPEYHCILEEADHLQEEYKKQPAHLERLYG
# B2: BBSome complex member BBS5 (Homo sapiens), Q8N3I7 (parent)
# chain: MSVLDALWEDRDVRFDLSAQQMKTRPGEVLIDCLDSIEDTKGNNGDRGRLLVTNLRILWHSLALSRVNVSVGYNCILNITTRTANSKLRGQTEALYILTKCNSTRFEFIFTNLVPGSPRLFTSVMAVHRAYETSKMYRDFKLRSALIQNKQLRLLPQEHVYDKINGVWNLSSDQGNLGTFFITNVRIVWHANMNDSFNVSIPYLQIRSIKIRDSKFGLALVIESSQQSGGYVLGFKIDPVEKLQESVKEINSLHKVYSASPIFGVDYEMEEKPQPLEALTVEQIQDDVEIDSDGHTDAFVAYFADGNKQQDREPVFSEELGLAIEKLKDGFTLQGLWEVMS
# partner: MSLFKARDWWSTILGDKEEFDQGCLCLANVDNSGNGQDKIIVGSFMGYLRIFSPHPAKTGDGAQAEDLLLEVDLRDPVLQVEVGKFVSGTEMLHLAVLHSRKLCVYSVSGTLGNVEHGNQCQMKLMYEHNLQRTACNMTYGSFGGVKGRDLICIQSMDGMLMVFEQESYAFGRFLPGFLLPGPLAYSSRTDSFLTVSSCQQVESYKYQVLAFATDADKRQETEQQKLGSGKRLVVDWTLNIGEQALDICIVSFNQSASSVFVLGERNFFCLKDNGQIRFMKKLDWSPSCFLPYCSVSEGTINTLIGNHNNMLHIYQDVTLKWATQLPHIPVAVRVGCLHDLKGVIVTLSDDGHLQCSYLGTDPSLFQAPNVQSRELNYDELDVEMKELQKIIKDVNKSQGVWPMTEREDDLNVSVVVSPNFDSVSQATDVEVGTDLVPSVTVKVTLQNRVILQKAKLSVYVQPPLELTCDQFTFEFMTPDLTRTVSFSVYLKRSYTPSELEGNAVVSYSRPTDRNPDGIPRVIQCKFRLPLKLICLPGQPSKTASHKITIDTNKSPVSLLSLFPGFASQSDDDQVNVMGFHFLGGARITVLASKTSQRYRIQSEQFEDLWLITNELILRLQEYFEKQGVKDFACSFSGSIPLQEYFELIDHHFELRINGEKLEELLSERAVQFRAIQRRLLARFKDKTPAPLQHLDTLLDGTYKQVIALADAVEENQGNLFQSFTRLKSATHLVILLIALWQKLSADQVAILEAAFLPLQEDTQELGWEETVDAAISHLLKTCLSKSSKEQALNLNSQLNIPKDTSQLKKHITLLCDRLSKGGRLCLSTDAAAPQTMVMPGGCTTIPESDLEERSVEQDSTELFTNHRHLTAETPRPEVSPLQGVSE
# Variants of: B1
# Conditions: with BBS7, Q8IWZ6-2
row,Variant,effect of a mutation on the interaction
1,V687K,with no effect
2,V687A,with no effect
3,V687E,with no effect
4,L685E,disrupting interaction strength
5,L685K,with no effect
6,R686K,with no effect
7,R686E,disrupting interaction strength
8,R686A,disrupting interaction strength

# Other lines, results leading:
row,effect of a mutation on the interaction,Variant
1,with no effect,N708A
2,with no effect,N708E
3,with no effect,N708K
4,with no effect,D700A
5,with no effect,D700E
6,with no effect,D700K
7,with no effect,I702E
8,with no effect,I702K
9,with no effect,I702A
10,with no effect,P690E
11,with no effect,P690A
12,with no effect,P690K
13,with no effect,Q693A
14,with no effect,Q693E
15,with no effect,Q693K
16,with no effect,V716E
17,with no effect,V716K
18,with no effect,V716A
19,with no effect,F711E
20,with no effect,F711K
21,with no effect,F711A
22,with no effect,I695E
23,with no effect,I695A
24,with no effect,I695K
25,with no effect,S704E

row,effect of a mutation on the interaction,Variant
1,with no effect,S704K
2,with no effect,S704A
3,with no effect,T709A
4,with no effect,T709E
5,with no effect,T709K
6,with no effect,L710E
7,with no effect,L710K
8,with no effect,L710A
9,with no effect,K689E
10,with no effect,K689A
11,with no effect,R715E
12,with no effect,R715K
13,with no effect,R715A
14,with no effect,N706E
15,with no effect,N706K
16,with no effect,N706A
17,with no effect,M714K
18,with no effect,M714E
19,with no effect,M714A
20,with no effect,K691A
21,with no effect,K691E
22,with no effect,R699A
23,with no effect,R699K
24,with no effect,R699E
25,with no effect,A697K

row,effect of a mutation on the interaction,Variant
1,with no effect,A697E
2,with no effect,I707E
3,with no effect,I707A
4,with no effect,I707K
5,with no effect,G717E
6,with no effect,G717K
7,with no effect,G717A
8,disrupting interaction strength,G688R
9,disrupting interaction strength,G688K
10,disrupting interaction strength,G688A
11,disrupting interaction strength,G688E
12,with no effect,I713K
13,with no effect,I713A
14,with no effect,I713E
15,with no effect,T696K
16,with no effect,T696A
17,with no effect,T696E
18,with no effect,A719K
19,with no effect,A719E
20,with no effect,C698K
21,with no effect,C698E
22,with no effect,C698A
23,with no effect,A701K
24,with no effect,A701E
25,with no effect,N692E

row,effect of a mutation on the interaction,Variant
1,with no effect,N692A
2,with no effect,N692K
3,with no effect,S720K
4,with no effect,S720E
5,with no effect,S720A
6,with no effect,S721A
7,with no effect,S721K
8,with no effect,S721E
9,with no effect,T718E
10,with no effect,T718K
11,with no effect,T718A
12,with no effect,R703E
13,with no effect,R703A
14,with no effect,R703K
15,with no effect,K712E
16,with no effect,K712A
17,with no effect,N705K
18,with no effect,N705A
19,with no effect,N705E
20,with no effect,V694E
21,with no effect,V694A
22,with no effect,V694K

# Variants of: B1
# Conditions: with BBS7, Q8IWZ6-2
# Remark: another data set of the same source
row,effect of a mutation on the interaction,Variant
1,disrupting interaction strength,S365R

# Variants of: B2
# Conditions: with pthb1_human BBS9, Q3SYG4
row,effect of a mutation on the interaction,Variant
1,with no effect,W8A
2,with no effect,W8E
3,with no effect,W8K
4,with no effect,V3K
5,with no effect,V3A
6,with no effect,V3E
7,with no effect,L4A
8,with no effect,L4K
9,with no effect,L4E
10,with no effect,Q21E
11,with no effect,Q21K
12,with no effect,Q21A
13,with no effect,L7E
14,with no effect,L7A
15,with no effect,L7K
16,with no effect,A19E
17,with no effect,A19K
18,disrupting interaction strength,F15A
19,disrupting interaction strength,F15E
20,with no effect,F15K
21,disrupting interaction strength,F15L
22,with no effect,A6E
23,with no effect,A6K

row,effect of a mutation on the interaction,Variant
1,disrupting interaction strength,V13E
2,disrupting interaction strength,V13A
3,disrupting interaction strength,V13K
4,disrupting interaction strength,M22K
5,disrupting interaction strength,M22E
6,disrupting interaction strength,M22A
7,with no effect,S2A
8,with no effect,S2K
9,with no effect,S2E
10,with no effect,E9A
11,with no effect,E9K
12,disrupting interaction strength,L17E
13,disrupting interaction strength,L17R
14,disrupting interaction strength,L17K
15,disrupting interaction strength,L17A
16,with no effect,D10K
17,with no effect,D10E
18,with no effect,D10A
19,with no effect,Q20K
20,disrupting interaction strength,Q20A
21,with no effect,Q20E
22,with no effect,D5E
23,with no effect,D5A

row,effect of a mutation on the interaction,Variant
1,with no effect,D5K
2,with no effect,R14K
3,disrupting interaction strength,R14E
4,with no effect,R14A
5,with no effect,S18K
6,with no effect,S18A
7,with no effect,S18E
8,disrupting interaction strength,R11A
9,disrupting interaction strength,R11W
10,with no effect,R11K
11,disrupting interaction strength,R11E
12,with no effect,D16A
13,with no effect,D16E
14,with no effect,D16K
15,disrupting interaction strength,D16S
16,with no effect,M1A
17,with no effect,M1E
18,with no effect,M1K
19,disrupting interaction strength,D12K
20,with no effect,D12E
21,with no effect,D12A

# Source: IntAct's records for PubMed 29039417
